Results: patent US20180140742A1

Assays:
[1] = biological target: oriented collagen tube (Porcine Skin Collagen type I) (porcine); assay: depletion assay: tube immersed in fusion protein solution in phosphate buffer; bound = added minus amount left in the supernatant; told of the other added amounts
[2] = biological target: oriented collagen tube (Porcine Skin Collagen type I) (porcine); assay: depletion assay: tube immersed in fusion protein solution in phosphate buffer; bound = added minus amount left in the supernatant

bFGF-PKD-CBD fusion protein
protein binding rate [1]: 90%
binding amount (when 10 µg added) [2]: 9 µg
